Experimental findings from US20240092867A1 (UNIVERSITY OF CHICAGO, published 2024) are described below.

For one test, the target named is T1, laminin-521 (human, UniProt O15230 36-3695; P55268 33-1798; P11047 34-1609).
T1 construct: Full-length recombinant human laminin isoform (BioLamina); chains read from the isoform name
Kind of test: SPR, laminin-521 immobilised, GF flowed, Langmuir fit. On the procedure: A450 nm represents absorbance at 450 nm. BSA-coated wells served as negative controls (n=4, mean±SEM). Signals greater than 0.1 (grey box) are considered to be significant. […] Experimental curves were fitted with Langmuir binding kinetics.
The obtained binding curves were fitted with Langmuir binding kinetics to calculate specific dissociation constants (KD) (FIG. 1B).
SPR analysis was performed as described previously². In brief, measurements were made with a Biacore 3000 SPR system (GE Healthcare). […] VEGF-A165, PDGF-BB, or PlGF-2 was flowed at increasing concentrations in the running buffer at 20 μL/min. The sensor chip was regenerated with 50 mM NaOH for every cycle. Specific bindings of GFs to laminin were calculated by comparison to a non-functionalized channel used as a reference. Experimental results were fitted with Langmuir binding kinetics using BIAevaluation software (GE Healthcare).
Background: In SPR one partner is held on a chip, and binding of the other changes the refractive index at the surface.

The next test has as its target T2, laminin-211 (human, UniProt P24043 23-3122; P07942 22-1786; P11047 34-1609).
T2 construct: Full-length recombinant human laminin isoform (BioLamina); chains read from the isoform name
Kind of test: ELISA; plate coated with 10 µg/mL laminin, 1 µg/mL VEGF-A165 in solution without or with 10 µM heparin, bound GF detected with antibody [panel A]. On the procedure: (§1) FIGS. 2A-C. […] ELISA plates were coated with 10 μg/mL laminin and further incubated with a 1 μg/mL (A) VEGF-A165, (B) PlGF-2, or (C) FGF-2 solution in the absence or presence of excess (10 μM) heparin. Bound GFs were detected using a specific antibody for each GF (n=4, mean±SEM). Statistical analyses were done using the Mann-Whitney U test by comparing the signals with and without heparin. *p<0.05, **p<0.01.
(§2) Because the GFs that bound to laminins have also been previously reported to bind to other ECM glycoproteins through HBDs, it was hypothesized that HBDs of laminins might be responsible for the interactions between GFs and laminin. To address this hypothesis, ELISA assays were repeated for VEGF-A165, PlGF-2 or FGF-2 in the presence of heparin added in excess (10 μM). […] To further confirm this, the inventors tested direct GF binding to the LG domains from human laminin α3, α4 and α5, within which HBDs of laminin were localized.

The target of another test is T3, laminin-421 (human, UniProt Q16363 25-1823; P55268 33-1798; P11047 34-1609).
T3 construct: Full-length recombinant human laminin isoform (BioLamina); chains read from the isoform name
The test is described as above. On the procedure: as §1, §2

A further test concerns the target T4, laminin-111 (human, UniProt P25391 18-3075; P07942 22-1786; P11047 34-1609).
T4 construct: Full-length recombinant human laminin isoform (BioLamina); Chain composition is read from the isoform name
Described as above. On the procedure: as §1, §2

For another test, the target named is T5, laminin-411 (human, UniProt Q16363 25-1823; P07942 22-1786; P11047 34-1609).
T5 construct: Full-length recombinant human laminin isoform (BioLamina); chains read from the isoform name
The test is described as above. On the procedure:
as §1, §2

The target in the next test is T6, human plasma-derived vWF (human, UniProt P04275 764-2813).
T6 construct: mature; also called plasma-derived purified vWF; von Willebrand factor
Kind of test: SPR; plasma-derived vWF immobilised (~2000 RU), VEGF-A165 flowed at 6.25-100 nM; 1:1 Langmuir fit [panel C]. On the procedure:
A450 nm represents absorbance at 450 nm. Signals from VEGF-A121 served as a baseline, and bovine serum albumin (BSA) served as a negative control (n=4, mean±SD). […] Experimental curves were fitted with (C) 1:1 Langmuir fit model and (D) heterogeneous ligand-parallel reactions binding.
SPR assays were performed as described previously2. In brief, measurements were made with a Biacore X100 SPR system or Biacore 3000 SPR system (GE Healthcare). […] Recombinant human VEGF-A165, VEGF-A121, or PDGF-BB was flowed at increasing concentrations in the running buffer at 30 μL/min. The sensor chip was regenerated with glycine at pH 2 for every cycle.

T3 sequence (Q16363 25-1823 limits assumed, chain 1 of 3): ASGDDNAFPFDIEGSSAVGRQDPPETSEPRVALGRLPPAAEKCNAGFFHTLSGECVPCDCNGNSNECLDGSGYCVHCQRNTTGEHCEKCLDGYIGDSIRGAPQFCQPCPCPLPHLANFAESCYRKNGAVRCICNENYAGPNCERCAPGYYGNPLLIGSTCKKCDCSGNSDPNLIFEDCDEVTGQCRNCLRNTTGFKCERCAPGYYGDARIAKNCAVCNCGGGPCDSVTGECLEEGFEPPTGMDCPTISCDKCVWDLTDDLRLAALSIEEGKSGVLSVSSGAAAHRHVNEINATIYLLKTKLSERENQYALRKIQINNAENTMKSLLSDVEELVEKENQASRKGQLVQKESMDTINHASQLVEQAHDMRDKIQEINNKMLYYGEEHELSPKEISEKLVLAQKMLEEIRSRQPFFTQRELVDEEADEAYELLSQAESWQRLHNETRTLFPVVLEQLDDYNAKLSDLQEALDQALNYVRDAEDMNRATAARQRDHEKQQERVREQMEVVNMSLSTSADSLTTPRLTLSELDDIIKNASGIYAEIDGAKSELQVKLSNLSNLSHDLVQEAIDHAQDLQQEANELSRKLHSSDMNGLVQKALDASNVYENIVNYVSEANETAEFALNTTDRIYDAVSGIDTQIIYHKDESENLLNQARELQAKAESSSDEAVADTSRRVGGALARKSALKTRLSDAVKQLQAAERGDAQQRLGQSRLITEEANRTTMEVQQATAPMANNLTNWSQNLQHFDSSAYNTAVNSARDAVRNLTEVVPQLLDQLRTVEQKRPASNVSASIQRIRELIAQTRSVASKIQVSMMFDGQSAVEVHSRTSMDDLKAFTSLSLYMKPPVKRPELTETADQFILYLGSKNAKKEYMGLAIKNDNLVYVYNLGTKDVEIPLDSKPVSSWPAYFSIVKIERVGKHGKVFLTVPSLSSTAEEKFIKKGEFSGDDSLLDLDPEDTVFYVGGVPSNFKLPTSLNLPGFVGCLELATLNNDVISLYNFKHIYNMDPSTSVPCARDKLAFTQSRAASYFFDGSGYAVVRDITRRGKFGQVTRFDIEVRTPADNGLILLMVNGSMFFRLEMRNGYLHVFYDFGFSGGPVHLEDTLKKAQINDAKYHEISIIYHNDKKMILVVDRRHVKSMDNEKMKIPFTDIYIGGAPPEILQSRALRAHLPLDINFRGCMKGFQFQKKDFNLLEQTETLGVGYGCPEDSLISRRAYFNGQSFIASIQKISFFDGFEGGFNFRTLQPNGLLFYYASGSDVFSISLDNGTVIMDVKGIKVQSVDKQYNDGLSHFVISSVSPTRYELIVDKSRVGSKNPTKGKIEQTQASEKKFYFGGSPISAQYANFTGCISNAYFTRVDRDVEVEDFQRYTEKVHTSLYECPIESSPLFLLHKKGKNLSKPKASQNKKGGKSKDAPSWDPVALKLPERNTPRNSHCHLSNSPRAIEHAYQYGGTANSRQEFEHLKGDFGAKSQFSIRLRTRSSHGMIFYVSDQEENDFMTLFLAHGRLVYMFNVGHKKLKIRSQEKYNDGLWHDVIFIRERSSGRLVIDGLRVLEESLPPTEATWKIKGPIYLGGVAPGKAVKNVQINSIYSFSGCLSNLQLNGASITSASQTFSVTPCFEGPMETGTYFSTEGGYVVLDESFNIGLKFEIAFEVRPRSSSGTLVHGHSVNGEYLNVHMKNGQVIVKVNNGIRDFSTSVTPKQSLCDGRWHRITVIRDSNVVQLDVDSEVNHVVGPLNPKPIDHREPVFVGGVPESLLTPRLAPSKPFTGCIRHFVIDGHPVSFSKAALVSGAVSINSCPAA
T3 sequence (P55268 33-1798 limits assumed, chain 2 of 3): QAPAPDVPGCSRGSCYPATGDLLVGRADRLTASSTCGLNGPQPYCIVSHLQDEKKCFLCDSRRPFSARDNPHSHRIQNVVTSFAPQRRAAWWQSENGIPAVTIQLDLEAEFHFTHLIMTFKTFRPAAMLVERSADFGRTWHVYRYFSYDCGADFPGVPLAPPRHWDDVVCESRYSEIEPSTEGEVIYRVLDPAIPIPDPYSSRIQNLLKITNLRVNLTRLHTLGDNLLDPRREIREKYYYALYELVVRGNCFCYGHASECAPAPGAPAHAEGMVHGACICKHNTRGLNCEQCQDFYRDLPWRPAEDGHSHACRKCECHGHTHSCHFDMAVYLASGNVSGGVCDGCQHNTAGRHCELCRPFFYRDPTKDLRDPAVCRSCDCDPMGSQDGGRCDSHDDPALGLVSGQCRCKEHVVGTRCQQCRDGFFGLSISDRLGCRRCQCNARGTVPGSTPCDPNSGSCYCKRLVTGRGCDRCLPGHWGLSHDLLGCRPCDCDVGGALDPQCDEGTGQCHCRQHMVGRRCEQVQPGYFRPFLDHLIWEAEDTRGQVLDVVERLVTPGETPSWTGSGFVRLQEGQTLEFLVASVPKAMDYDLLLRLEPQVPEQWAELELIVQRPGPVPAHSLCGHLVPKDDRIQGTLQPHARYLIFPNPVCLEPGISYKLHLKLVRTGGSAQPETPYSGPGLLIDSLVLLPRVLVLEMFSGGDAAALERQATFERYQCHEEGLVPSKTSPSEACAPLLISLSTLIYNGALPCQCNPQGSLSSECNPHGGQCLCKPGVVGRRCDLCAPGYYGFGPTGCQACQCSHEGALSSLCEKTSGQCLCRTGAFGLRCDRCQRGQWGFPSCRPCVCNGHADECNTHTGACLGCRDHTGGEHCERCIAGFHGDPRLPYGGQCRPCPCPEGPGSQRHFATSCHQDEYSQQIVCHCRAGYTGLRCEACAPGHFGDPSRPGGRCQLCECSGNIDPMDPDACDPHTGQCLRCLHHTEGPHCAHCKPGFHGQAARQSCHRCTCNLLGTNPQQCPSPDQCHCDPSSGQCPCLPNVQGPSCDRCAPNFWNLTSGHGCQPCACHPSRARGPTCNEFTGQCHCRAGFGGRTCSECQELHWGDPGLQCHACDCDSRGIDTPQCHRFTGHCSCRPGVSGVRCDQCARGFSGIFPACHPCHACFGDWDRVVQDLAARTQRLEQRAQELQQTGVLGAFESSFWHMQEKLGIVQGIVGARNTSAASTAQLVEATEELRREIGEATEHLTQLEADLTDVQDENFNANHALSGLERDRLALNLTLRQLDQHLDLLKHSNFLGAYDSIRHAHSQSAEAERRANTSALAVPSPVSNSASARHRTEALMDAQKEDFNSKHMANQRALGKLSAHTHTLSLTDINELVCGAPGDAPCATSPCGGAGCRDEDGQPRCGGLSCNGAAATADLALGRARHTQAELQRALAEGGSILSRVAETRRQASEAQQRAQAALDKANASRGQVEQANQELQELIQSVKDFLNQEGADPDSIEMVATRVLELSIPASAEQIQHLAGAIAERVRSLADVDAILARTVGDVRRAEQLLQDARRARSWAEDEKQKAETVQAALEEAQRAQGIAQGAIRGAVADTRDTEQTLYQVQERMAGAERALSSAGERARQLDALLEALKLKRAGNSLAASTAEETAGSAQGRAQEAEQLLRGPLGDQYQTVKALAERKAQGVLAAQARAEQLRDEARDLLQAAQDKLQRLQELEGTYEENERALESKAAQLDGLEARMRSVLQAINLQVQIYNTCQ
T3 sequence (P11047 34-1609 limits assumed, chain 3 of 3): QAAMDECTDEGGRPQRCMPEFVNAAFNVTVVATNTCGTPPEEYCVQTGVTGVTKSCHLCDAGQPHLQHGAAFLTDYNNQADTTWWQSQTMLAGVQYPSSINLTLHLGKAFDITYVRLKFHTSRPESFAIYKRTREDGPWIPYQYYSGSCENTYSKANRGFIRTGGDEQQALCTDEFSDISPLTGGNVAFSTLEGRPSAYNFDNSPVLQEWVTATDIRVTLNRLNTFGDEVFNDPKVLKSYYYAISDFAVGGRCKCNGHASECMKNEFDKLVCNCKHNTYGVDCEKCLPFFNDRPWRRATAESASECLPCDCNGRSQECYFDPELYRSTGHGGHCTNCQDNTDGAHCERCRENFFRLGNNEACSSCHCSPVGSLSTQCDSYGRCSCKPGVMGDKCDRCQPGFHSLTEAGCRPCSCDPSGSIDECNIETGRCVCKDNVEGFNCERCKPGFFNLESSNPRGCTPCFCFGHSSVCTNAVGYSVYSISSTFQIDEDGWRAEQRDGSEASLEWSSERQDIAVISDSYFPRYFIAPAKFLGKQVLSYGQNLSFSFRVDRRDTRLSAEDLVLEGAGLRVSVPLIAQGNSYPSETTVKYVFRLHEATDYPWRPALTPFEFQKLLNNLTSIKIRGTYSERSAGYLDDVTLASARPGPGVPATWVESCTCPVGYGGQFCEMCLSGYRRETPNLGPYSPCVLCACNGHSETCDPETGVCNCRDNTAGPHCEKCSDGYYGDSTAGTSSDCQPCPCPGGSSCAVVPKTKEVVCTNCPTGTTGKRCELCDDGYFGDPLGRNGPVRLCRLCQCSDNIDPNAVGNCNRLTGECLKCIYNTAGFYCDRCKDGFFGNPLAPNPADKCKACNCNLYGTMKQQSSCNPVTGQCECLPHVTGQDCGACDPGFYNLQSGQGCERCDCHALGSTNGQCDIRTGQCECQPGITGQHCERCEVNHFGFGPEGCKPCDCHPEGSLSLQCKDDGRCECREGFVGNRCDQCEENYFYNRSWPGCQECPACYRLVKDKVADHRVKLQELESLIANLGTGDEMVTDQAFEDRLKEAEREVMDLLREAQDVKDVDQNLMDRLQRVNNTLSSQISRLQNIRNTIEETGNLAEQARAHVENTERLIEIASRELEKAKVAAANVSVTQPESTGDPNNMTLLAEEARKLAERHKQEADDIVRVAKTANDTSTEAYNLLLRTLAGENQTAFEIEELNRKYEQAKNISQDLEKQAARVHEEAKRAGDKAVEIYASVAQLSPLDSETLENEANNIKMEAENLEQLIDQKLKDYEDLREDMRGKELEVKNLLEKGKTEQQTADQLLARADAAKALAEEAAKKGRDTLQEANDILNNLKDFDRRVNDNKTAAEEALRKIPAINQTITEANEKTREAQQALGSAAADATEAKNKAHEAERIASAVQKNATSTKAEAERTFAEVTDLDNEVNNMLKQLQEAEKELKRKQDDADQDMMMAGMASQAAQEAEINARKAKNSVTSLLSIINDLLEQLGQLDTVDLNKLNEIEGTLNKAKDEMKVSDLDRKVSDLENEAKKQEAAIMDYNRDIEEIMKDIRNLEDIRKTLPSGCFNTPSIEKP

B1: vascular endothelial growth factor (VEGF)-A165 (ligand, human, UniProt P15692-4 27-191, looked up)
chain: APMAEGGGQNHHEVVKFMDVYQRSYCHPIETLVDIFQEYPDEIEYIFKPSCVPLMRCGGCCNDEGLECVPTEESNITMQIMRIKPHQGQHIGEMSFLQHNKCECRPKKDRARQENPCGPCSERRKHLFVQDPQTCKCSCKNTDSRCKARQLELNERTCRCDKPRR
notes: mature; Purchased in mature form, not glycosylated
As to B1, the dissociation constant (Kd) with laminin-521 came out at 5.8 nM; in the test with human plasma-derived vWF it was 27.4 nM. The binding result with laminin-211, with laminin-421, in the test with laminin-111 and with laminin-411 was “binds” each time.

For orientation: Kd means the constant that tells how readily two partners part at equilibrium.
